Series [1] concerns C57BI/6 mice. Put plainly: ActRIIA/B-mFc in combination with ruxolitinib (ruxolitinib-induced anemia). The series is classed as in vivo, mouse. The procedure: To examine whether treatment with ActRIIA/B-mFc can overcome ruxolitinib-induced anemia, a pharmacological assessment was conducted in mice. Ten- to twelve-week-old, female, C57BI/6 mice were dosed orally with either vehicle (n=10) or ruxolitinib at 90 mg/kg (n=20) or 120 mg/kg (n=20) twice daily. After 37 days of ruxolitinib therapy, blood was sampled via cheek bleed for hematological assessment. On Day 41, mice from each ruxolitinib dose were divided into two groups that received either TBS (vehicle) (n=10) or ActRIIA/B-mFc (7.5 mg/kg, n=10 per group), IP twice weekly for 14 days concomitant to continued ruxolitinib dosing. Hematological parameters were assessed in whole blood with the use of a Heska Element HT5 veterinary hematology analyzer.

The target in series [2] is ActRIIB (Homo sapiens, UniProt Q13705). The following applies: Townson et al., J. Biol. Chem. 287:27313, 2012; cited from earlier work.
ActRIIB, sequence (Q13705 19-512, species assumed): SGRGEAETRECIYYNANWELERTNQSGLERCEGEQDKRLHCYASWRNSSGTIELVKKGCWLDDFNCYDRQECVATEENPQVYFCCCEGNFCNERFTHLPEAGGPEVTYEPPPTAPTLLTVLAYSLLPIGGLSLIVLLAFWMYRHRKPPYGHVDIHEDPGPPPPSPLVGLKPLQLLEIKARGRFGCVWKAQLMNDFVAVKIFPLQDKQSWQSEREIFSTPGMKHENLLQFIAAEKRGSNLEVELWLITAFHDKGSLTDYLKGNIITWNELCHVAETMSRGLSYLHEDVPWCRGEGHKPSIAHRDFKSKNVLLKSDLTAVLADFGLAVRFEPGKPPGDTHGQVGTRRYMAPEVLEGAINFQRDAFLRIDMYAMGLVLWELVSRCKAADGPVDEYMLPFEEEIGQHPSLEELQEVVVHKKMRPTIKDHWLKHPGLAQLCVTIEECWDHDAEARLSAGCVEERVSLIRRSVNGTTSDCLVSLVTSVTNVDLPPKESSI
Series [3] in a line: Activity in vivo of ActRIIA variant substituted at X17. The following applies: substitution of alanine (A) for lysine (K) at X17.
Series [4] deals with C57BI/6 mice. Put plainly: Effect of a single dose of ActRIIA/B-mFc on platelet numbers at day 37, 51 and 85. The series is classed as in vivo, mouse. The following applies: single dose 10 mg/kg subcutaneous. The procedure: Eleven-week-old C57BI/6 mice were given a single dose of either TBS (vehicle) or ActRIIA/B-mFc (10 mg/kg) via subcutaneous administration. Separate cohorts of mice from both dosing groups were sampled for whole blood at study day 37, 51 and 85, and platelet counts were determined using a veterinary hematology analyzer (Heska Element HT5).

Series [5] relates to Bone marrow cells from 11-week-old C57BI/6 mice. As to the kind of experiment: Ex-vivo treatment of bone marrow cells, ploidy of megakaryocyte precursors by flow cytometry. The series is classed as cell-based, mouse. The following applies: six days. The procedure: Bone marrow cells from 11-week-old C57BI/6 mice were isolated and treated with Activin A ([…]), ActRIIA/B-mFc ([…]), or a combination of both for six days. Cells were harvested after six days and analyzed using flow cytometry (N=2).

Series [6] has as its system C57BI/6 male mice. As to the kind of experiment: Effect of an anti-activin A antibody on platelet numbers 24 hours post-dose. The following applies: intraperitoneal, anti-activin A 5 mg/kg, ActRIIA/B-mFc 10 mg/kg, vs TBS. The series is classed as in vivo, mouse. On the procedure: Ten-week-old C57BI/6 male mice were dosed with either TBS (vehicle), anti-activin A antibody (described in WO2008031061A2, 5 mg/kg), or ActRIIA/B-mFc (10 mg/kg) via intraperitoneal administration. Twenty-four hours post-dose whole blood was sampled, and platelet counts were determined using a veterinary hematology analyzer (Hematrue).

The test system of series [7] is TPO^high model of myelofibrosis. As to the kind of experiment: TPO^high model of myelofibrosis: platelets, red blood cell parameters, spleen weight, immune cells. In kind it is in vivo, mouse. On the procedure: The TPO^high model of myelofibrosis induces a myelofibrotic-like pathology through elevated exposure to thrombopoietin, the native endocrine inducer of megakaryocyte progenitor proliferation and development. Seven-week-old C57BI/6 albino mice (B6(Cg)-Tyr, Jackson Laboratory) were teil-vein injected with 0.75 mg/kg thrombopoietin (TPO) expressing plasmid cloned into pLEV113 plasmid (Lake Pharma). The injection was done in hydrodynamic approach in which 100 ml/kg volume is injected in a short period of time (6-10 seconds). On day 3 after TPO injection mice were divided into 2 groups receiving either vehicle (TBS) or ActRIIA/B-mFc (7.5 mg/kg), twice weekly. Mice were sacrificed on day 14 after TPO injection. Hematological parameters were measured using the Heska Element HT5 veterinary hematology analyzer.

The test system of series [8] is mouse model of immune thrombocytopenia. Put plainly: Platelet recovery following anti-GP1bα platelet depletion. The series is classed as in vivo. The procedure:
Twelve-week-old mice were treated with either anti-GP1bα (0.08 mg/kg, Efferet) or IgG control. At day 4 after treatment, the anti-GP1bα treated group was further divided to receive either vehicle or ActRIIA/B-mFc (7.5 mg/kg) treatment. Platelets were measured at indicated time points post anti-GP1bα dosing. At day 10 post-treatment, mice were euthanized and bone marrow cells were harvested. Bone marrow cells were fixed in ice-cold 100% ethanol and stained with Propidium lodide (PI) (200 μg/mL, Sigma-Aldrich) and anti-CD41 (FITC conjugated, Emfret Analytics) antibody in parallel with RNase treatment (2 mg/ml, Invitrogen). Samples were analyzed by flow cytometer (Cytoflex, Beckman coulter) and % CD41+ nucleated cells (PI+ cells) was measured.

The test system of series [9] is C57BI/6 mice. Put plainly: Effect of ActRIIA/B-mFc on megakaryocyte maturation (CD41+ cells and ploidy by flow cytometry). The series is classed as in vivo, mouse. The following applies: 10 mg/kg, bone marrow. The procedure:
Eleven-week-old C57BI/6 mice were dosed with either TBS (Vehicle) or ActRIIA/B-mFc (10 mg/kg) via IP administration. Twelve and twenty-four hour later mice were euthanized and bone marrow extracted from the femurs. Bone marrow cells were fixed in ethanol following by a staining with Propidium lodide (PI) and anti CD41 (FITC, Efferet) antibody in parallel with RNAse treatment. Samples were analyzed by flow cytometer (Cytoflex, Beckman coulter). Ploidy of CD41+ nucleated cells (PI+ cells) was analyzed. Graphs represent % cells at each ploidy stage. For 12HR N=3 and for 24HR N=2. For CD41+ cells at 12HR time point a t-test was performed for statistical analysis. Data are presented as mean±SEM.

For series [10], the system named is C57BI/6 mice. As to the kind of experiment: Effect of ActRIIA/B-mFc on platelets and bone marrow megakaryocyte progenitors 12 hours post-dose. In kind it is in vivo, mouse. The following applies: single dose 10 mg/kg IP. The procedure:
Eleven-week-old C57BI/6 mice were dosed with either TBS (Vehicle) or ActRIIA/B-mFc (10 mg/kg) via intraperitoneal (IP) administration. Twelve hours post-dose whole blood was sampled, and platelet counts were determined using a veterinary hematology analyzer (Heska Element HT5). Mice were then euthanized, and bone marrow extracted from the femurs. Bone marrow cells were stained with antibodies against Lineage (Perc-Cy5), sca1 (BV525), cKit (Alexa750), CD41 (APC) and CD150 (Pcy7) and analyzed on flow cytometer (Cytoflex, Beckman coulter). Megakaryocyte progenitors were gated on Lin−; sca1−; ckit+; CD150+; CD41+ cells.

[11] abbreviates: ruxolitinib alone, 90 or 120 mg/kg orally twice daily, after 37 days.
Where [12] appears, read: 7.5 mg/kg IP twice weekly for 14 days, continued ruxolitinib.
The mark [13] stands for this setting: 7.5 mg/kg twice weekly from day 3, day 14 after TPO injection.

Entries after “also recorded” stand apart in the source; their conditions may differ.

On to `N#CC[C@H](C1CCCC1)n1cc(-c2ncnc3[nH]ccc23)cn1` [ruxolitinib, reference compound], for which, in [1] (setting [11]), the RBC volume entry is listed as “reduced”, the hematocrit result is “reduced” and the hemoglobin result is on record as “reduced”.
Turning to “BMP9: bone morphogenetic protein, ligand in the TGF-β superfamily”, the “binding affinity for ActRIIB relative to ActRIIA” value in series [2] was “about 300 fold”.

B1: SEQ ID NO: 85: ActRIIA variant with substitution of alanine (A) for lysine (K) at X17 (protein)
chain: GAILGRSETQECLFYNANWELERTNQTGVERCEGEKDKRLHCYATWRNISGSIEIVAKGCWLDDFNCYDRTDCVETEENPQVYFCCCEGNMCNEKFSYFPEMEVTQPTS
Regarding B1, the activity in vivo entry in series [3] is recorded as “reduced activity”.

B2: ActRIIA/B-mFc: SEQ ID NO: 69 fused to a mouse Fc domain by way of a linker (protein)
chain: GAILGRSETQECLFYNANWELERTNQTGVERCEGEKDKRLHCYATWRNISGSIEIVKKGCWLDDFNCYDRTDCVETEENPQVYFCCCEGNMCNEKFSYFPEMEVTQPTS
modifications: left off: a dimerising Fc or GST
With B2, in series [4], the “duration of increased circulating platelets after a single dose” value is on record as “at least 85 days”. In [4] (day 37, 51 and 85), the circulating platelets entry was “increased”. In [5] (ActRIIA/B-mFc (10 mg/kg) with Activin A (5 mg/kg)), the “activin-mediated changes in megakaryocyte precursors (ploidy)” value is “reversed”. Moreover, in series [1] (setting [12]), the “ruxolitinib-associated reduction in RBC volume” value was “abrogated”, the “ruxolitinib-associated reduction in hematocrit” value is reported as “abrogated” and the “ruxolitinib-associated reduction in hemoglobin” value is given as “abrogated”. Further, the “body weight in mice treated with ruxolitinib” value in [1] (ActRIIA/B-mFc 7.5 mg/kg IP twice weekly for 14 days with ruxolitinib 90 or 120 mg/kg twice daily) is recorded as “increased”. Besides, the “platelets in wild-type mice” value in series [6] is reported as “increased”. Moreover, in series [7] (setting [13]), the “RBC metrics (red blood cells, hemoglobin, hematocrit, mean corpuscular hemoglobin concentration)” value was “significant improvement”; the “TPO-mediated increase in lymphocytes” value was “reduced”; the “TPO-mediated increase in white blood cells” value is on record as “reduced”; the development of anemia result is recorded as “reduce”. In addition, in [7] (setting [13]), the expansion of platelets entry was “significant attenuation; also recorded: attenuated” and the splenomegaly result is “significant reduction”. For the same molecule, the “splenic extra medullary hematopoiesis” value in [7] (inferred from splenomegaly, 7.5 mg/kg twice weekly, day 14) is “reduced”. Moreover, the “recovery of platelet numbers following platelet depletion” value in [8] (7.5 mg/kg at day 4 after anti-GP1bα (0.08 mg/kg), compared to vehicle treated mice) is reported as “accelerated recovery”. The “increase in the number of CD41+ megakaryocyte progenitors in the bone marrow compared to the vehicle-treated group” value in [8] (7.5 mg/kg, day 10 after platelet depletion) is reported as 25%. Besides, the 4N ploidy level result in [8] (7.5 mg/kg, day 10 after platelet depletion, vs vehicle) is reported as “higher”. Besides, in series [9] (12 hours after treatment), the “number of CD41+ megakaryocyte progenitors” value was “increase”. Further, the “number of polyploid megakaryocytes” value in [9] (by 24 hours) is reported as “increase”. For the same molecule, the “bone marrow megakaryocyte progenitors” value in [10] (Lin-, sca1-, ckit+, CD150+, CD41+ cells) is “increased”. For the same molecule, the circulating platelet numbers entry in series [10] (vs TBS vehicle) was “increased”.

B3: activin A: ActRII ligand of the TGF-β superfamily used to treat bone marrow cells ex vivo (protein, UniProt P08476 311-426, looked up)
Inhibin beta A chain: GLECDGKVNICCKKQFFVSFKDIGWNDWIIAPSGYHANYCEGECPSHIAGTSGSSLSFHSTVINHYRMRGHSPFANLKSCCVPTKLRPMSMLYYDDGQNIIKKDIQNMIVEECGCS
Consider B3, for which, in series [5] (Activin A (5 mg/kg)), the 2N ploidy levels entry is “increased” and the “extent of polyploidy (higher ploidy levels)” value is recorded as “reduced”.

The values above are taken from patent publication US20240252631A1, “METHODS OF USING ACTIVIN RECEPTOR TYPE II SIGNALING INHIBITORS” (Keros Therapeutics, Inc., priority 2021, published 2024).
